In this test the target is recombinant human HGF (R&D Systems, Catalog No. 294-HGN-025) (human, UniProt P14210 32-728). The experiment in a line: SPR.
recombinant human HGF (R&D Systems, Catalog No. 294-HGN-025), sequence (P14210 32-728): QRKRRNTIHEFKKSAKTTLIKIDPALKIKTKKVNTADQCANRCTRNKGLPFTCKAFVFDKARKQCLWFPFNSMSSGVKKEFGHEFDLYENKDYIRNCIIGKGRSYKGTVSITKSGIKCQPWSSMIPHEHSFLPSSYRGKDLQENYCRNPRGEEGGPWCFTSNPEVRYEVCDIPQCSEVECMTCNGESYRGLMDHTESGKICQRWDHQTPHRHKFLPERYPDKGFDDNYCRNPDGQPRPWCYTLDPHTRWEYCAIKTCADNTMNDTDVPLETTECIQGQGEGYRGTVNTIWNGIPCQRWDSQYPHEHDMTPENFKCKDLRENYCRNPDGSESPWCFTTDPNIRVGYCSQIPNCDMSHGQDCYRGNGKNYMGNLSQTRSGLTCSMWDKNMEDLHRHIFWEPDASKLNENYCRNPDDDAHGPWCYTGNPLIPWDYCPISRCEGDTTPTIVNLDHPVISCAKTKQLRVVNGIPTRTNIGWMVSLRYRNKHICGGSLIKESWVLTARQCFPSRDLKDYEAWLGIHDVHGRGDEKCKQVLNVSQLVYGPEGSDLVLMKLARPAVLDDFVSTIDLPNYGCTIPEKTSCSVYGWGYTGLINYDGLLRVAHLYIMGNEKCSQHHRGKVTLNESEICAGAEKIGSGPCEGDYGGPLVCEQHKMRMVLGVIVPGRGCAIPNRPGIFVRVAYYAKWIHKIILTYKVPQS

B1: Hu2B8_Kv3-15.1 / Hu2B8_Hv5-a.1 (antibody, V domains shown)
VH: EVQLVQSGAEVKKPGESLRISCKGSGYSFTTYWMHWVRQMPGKGLEWMGEINPTNGHTNYNPSFQGHVTISADKSISTAYLQWSSLKASDTAMYYCARNYVGSIFDYWGQGTLVTVSS
VL: EIVMTQSPATLSVSPGERATLSCKASENVVSYVSWYQQKPGQAPRLLIYGASNRNTGIPARFSGSGSGTEFTLTISSLQSEDFAVYYCGQSYNYPYTFGQGTKLEIKR
B1: the Kd is 0.0269 nM.

B2: Hu2B8_Kv1-39.1 / Chimeric 2B8 (antibody, V domains shown)
VH: QVQLQQPGAELVKPGTSVKLSCKASGYTFTTYWMHWVNQRPGQGLEWIGEINPTNGHTNYNEKFKSKATLTVDKSSSTAYMQLSSLTSEDSAVYYCARNYVGSIFDYWGQGTTLTVSS
VL: DIQMTQSPSSLSASVGDRVTITCKASENVVSYVSWYQQKPGKAPKLLIYGASNRNTGVPSRFSGSGSGTDFTLTISSLQPEDFATYYCGQSYNYPYTFGQGTKLEIKR
Turning to B2, the Kd came to 0.0136 nM.

B3: Hu2B8_Kv3-15.1 / Chimeric 2B8 (antibody, V domains shown)
VH: B2 VH
VL: B1 VL
B3: the Kd was 0.0055 nM.

B4: Hu2B8_Kv1-39.1 / Hu2B8_Hv5-a.1 (antibody, V domains shown)
VH: B1 VH
VL: B2 VL
For B4, the Kd was determined as 0.0147 nM.

B5: Chimeric 2B8 / Hu2B8_Hv1-f.1 (antibody, V domains shown)
VH: EVQLVQSGAEVKKPGATVKISCKVSGYTFTTYWMHWVQQAPGKGLEWMGEINPTNGHTNYNEKFQGRVTITADTSTDTAYMELSSLRSEDTAVYYCATNYVGSIFDYWGQGTLVTVSS
VL: NIVMTQSPKSMSMSVGERVTLSCKASENVVSYVSWYQQKPAQSPKLLIYGASNRNTGVPDRFTGSGSATDFTLTISSVRAEDLADYHCGQSYNYPYTFGGGTRLEIKR
Consider B5, for which the Kd amounted to 0.662 nM.

B6: chimeric 2B8 (antibody, V domains shown)
VH: B2 VH
VL: B5 VL
For B6, the Kd stood at 0.0116 nM.

B7: Hu2B8_Kv1-39.1 / Hu2B8_Hv1-f.1 (antibody, V domains shown)
VH: B5 VH
VL: B2 VL
Regarding B7, the Kd was found to be 0.294 nM.

B8: Hu2B8_Kv3-15.1 / Hu2B8_Hv1-f.1 (antibody, V domains shown)
VH: B5 VH
VL: B1 VL
As to B8, the Kd worked out at 0.466 nM.

B9: Chimeric 2B8 / Hu2B8_Hv5-a.1 (antibody, V domains shown)
VH: B1 VH
VL: B5 VL
Regarding B9, the Kd stood at 0.0044 nM.

(Values after US20100173362A1 (published 2010).)
